Reference: patent US20100261647A1 (ARMAGEN TECHNOLOGIES, published 2010)

How the values were obtained:
[1] = biological target: T1, human insulin receptor extracellular domain (HIR ECD) (human, UniProt P06213 28-956, limits assumed); test: ELISA on plated HIR ECD, detection with biotinylated goat anti-human IgG (H+L)
T1 construct: extracellular domain
Protocol: CHO cells permanently transfected with the HIR ECD were grown in serum free media (SFM), and the HIR ECD was purified with a wheat germ agglutinin affinity column.

[2] = biological target: T1, human insulin receptor extracellular …; test: competitive ligand binding assay, displacement of [125I]-murine HIRMAb from plated HIR ECD, Scatchard analysis
Protocol: CHO cells transfected with the HIR ECD were grown in serum free media (SFM), and the HIR ECD was purified with a wheat germ agglutinin affinity column.

B1: chimeric HIRMAb (chimeric monoclonal antibody against the human insulin receptor) (antibody, human IgG1, kappa, V domains shown)
VH: QVQLQQSGPELVKPGALVKISCKASGYTFTNYDIHWVKQRPGQGLEWIGWIYPGDGSTKYNEKFKGKATLTADKSSSTAYMHLSSLTSEKSAVYFCAREWAYWGQGTLVTVSA
VL: DIQMTQSPSSLSASLGERVSLTCRASQDIGGNLYWLQQGPDGTIKRLIYATSSLDSGVPKRFSGSRSGSDYSLTISSLESEDFVDYYCLQYSSSPWTFGGGTKMEIKR
notes: Chimeric human IgG1/kappa
EC50 [1]: 0.21 nM
Ki [2]: 0.63 nM
